Results from publication PMC6384913.
pKd: −log10 of the molar value.

System: MBP-(ZF)x6 (designed chimera), Q01844-5+P47974+O95218+O95218+P52756+P47974
Assay: BLI
Details: ITC: 50 mM Tris pH 7.5, 150 mM NaCl, 1 mM DTT, 0.1 mM ZnCl2, 25 °C, BLI: 50 mM Tris pH 7.5, 150 mM NaCl, 0.1% BSA, 0.02% Tween, 30 °C

Sequence of MBP-(ZF)x6 (designed chimera), Q01844-5+P47974+O95218+O95218+P52756+P47974 (P52756 whole entry, looked up, change not shown, chain 1 of 4): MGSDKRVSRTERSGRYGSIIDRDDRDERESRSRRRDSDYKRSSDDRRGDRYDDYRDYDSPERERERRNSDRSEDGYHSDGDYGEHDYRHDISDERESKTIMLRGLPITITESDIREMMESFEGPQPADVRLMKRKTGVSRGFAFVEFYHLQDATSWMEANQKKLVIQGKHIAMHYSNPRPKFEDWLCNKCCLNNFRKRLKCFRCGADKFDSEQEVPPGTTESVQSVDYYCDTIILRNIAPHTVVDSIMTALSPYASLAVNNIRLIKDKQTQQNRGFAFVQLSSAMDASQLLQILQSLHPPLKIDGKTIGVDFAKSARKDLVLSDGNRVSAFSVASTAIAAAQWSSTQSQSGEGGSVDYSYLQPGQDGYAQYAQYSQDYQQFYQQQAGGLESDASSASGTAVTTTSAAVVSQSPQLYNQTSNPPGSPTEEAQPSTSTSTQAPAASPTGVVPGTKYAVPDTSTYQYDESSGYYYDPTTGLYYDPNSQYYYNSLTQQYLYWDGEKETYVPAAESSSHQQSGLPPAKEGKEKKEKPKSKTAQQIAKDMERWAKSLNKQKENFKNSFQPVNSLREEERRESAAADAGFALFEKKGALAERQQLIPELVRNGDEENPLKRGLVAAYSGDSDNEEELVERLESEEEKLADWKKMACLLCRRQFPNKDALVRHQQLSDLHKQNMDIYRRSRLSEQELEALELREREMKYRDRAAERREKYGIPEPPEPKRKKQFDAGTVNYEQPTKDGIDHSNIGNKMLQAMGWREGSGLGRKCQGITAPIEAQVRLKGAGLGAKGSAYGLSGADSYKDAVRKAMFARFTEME
Sequence of MBP-(ZF)x6 (designed chimera), Q01844-5+P47974+O95218+O95218+P52756+P47974 (P47974 whole entry, looked up, change not shown, chain 2 of 4): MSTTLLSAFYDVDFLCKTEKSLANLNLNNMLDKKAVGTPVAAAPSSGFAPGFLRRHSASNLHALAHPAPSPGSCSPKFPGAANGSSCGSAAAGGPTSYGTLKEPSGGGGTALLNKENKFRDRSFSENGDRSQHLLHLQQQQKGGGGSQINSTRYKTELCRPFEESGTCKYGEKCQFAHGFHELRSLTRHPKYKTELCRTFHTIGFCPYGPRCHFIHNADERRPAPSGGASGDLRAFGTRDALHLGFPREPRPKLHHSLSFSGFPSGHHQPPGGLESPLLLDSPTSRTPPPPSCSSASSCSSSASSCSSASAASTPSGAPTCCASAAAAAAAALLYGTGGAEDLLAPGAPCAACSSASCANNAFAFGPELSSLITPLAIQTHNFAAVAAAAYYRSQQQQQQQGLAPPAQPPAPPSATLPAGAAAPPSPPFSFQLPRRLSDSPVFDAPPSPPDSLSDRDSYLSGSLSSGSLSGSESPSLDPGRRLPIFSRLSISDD
Sequence of MBP-(ZF)x6 (designed chimera), Q01844-5+P47974+O95218+O95218+P52756+P47974 (O95218 whole entry, looked up, change not shown, chain 3 of 4): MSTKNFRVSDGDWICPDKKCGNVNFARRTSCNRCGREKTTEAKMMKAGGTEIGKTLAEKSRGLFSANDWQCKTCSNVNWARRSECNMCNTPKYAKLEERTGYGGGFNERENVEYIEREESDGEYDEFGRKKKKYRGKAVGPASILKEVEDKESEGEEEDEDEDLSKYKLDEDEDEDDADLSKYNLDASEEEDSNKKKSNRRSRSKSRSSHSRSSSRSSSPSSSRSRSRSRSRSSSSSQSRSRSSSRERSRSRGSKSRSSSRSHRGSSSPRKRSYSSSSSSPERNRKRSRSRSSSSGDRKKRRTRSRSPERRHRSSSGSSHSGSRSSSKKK
Sequence of MBP-(ZF)x6 (designed chimera), Q01844-5+P47974+O95218+O95218+P52756+P47974 (Q01844 whole entry, looked up, change not shown, chain 4 of 4): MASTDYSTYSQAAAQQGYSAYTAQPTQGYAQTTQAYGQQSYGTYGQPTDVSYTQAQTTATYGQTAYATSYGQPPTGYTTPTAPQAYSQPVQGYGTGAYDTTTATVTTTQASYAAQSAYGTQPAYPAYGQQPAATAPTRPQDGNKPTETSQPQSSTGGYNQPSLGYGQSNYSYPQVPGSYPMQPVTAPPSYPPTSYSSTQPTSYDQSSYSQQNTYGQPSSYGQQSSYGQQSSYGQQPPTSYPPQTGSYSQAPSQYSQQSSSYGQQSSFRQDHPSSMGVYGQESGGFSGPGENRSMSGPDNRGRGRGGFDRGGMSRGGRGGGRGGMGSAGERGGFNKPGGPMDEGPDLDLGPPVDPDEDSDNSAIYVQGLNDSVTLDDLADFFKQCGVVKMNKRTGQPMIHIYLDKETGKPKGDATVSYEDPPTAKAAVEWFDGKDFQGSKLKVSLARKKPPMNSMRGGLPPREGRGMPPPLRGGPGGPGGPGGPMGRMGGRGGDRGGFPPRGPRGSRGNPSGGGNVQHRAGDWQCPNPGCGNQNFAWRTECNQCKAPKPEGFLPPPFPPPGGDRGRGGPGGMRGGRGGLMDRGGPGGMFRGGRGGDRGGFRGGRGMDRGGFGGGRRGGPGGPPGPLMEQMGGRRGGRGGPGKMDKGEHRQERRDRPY

Sequence	pKd
AAAUAUUGGUGGGUAUUGCCGGUAAA [PT (permuted target)]	6.65
AAAGGUUAUUGGUGCCGGGUAUUAAA [(ZF)x6 target]	7.62
